# In US11224246B2, “Mineral fortification process and its uses” (SOCIETE DES PRODUITS NESTLE S.A., priority 2012, dated 2022):
# What was measured:
# Format in all cases: physicochemical
# [1] = Copper sulphate addition to sodium caseinate solution, precipitation; conditions: 2% protein
# Procedure: The sodium caseinate solution (2% protein) precipitated upon addition of 1.5 mM copper as copper sulphate. Again using the concept of complex II, we could add 4 mM without noticeable precipitation at pH 6.8.
# [2] = Effect of phosphorus addition on soluble protein, soluble iron, turbidity and appearance of sodium caseinate solution on iron addition; conditions: without the phosphorus, FIGS. 6 and 7
# Procedure: FIGS. 3 to 5 illustrate the effect of adding phosphorus to the complex.
# FIG. 5 illustrates the advantages of the invention, wherein an increase in turbidity indicates a reduction in stability due to the formation of small particulates/precipitates.
# FIGS. 6 and 7 visually illustrate how addition of phosphorus improves the solubility and stability of the complex. Even when the iron is loaded up to 25 mM, the composition remains in solution. Without the phosphorus, the protein and/or iron precipitates even at lower levels of iron (5-10 mM).
# [3] = Zinc sulphate addition to sodium caseinate solution, precipitation of proteins; conditions: 2% protein solution, pH 6.8
# Procedure: We have compared the effect of zinc sulphate addition on the precipitation of proteins in sodium caseinate using our technology.
# Upon addition of zinc sulphate to sodium caseinate solution (2% protein), not more than 5 mM of zinc could be added without gross precipitation of proteins at pH 6.8.
# However, as exemplified with the concept of complex II, we could add 18 mM of zinc to the sodium caseinate (2% protein solution) without any precipitation of proteins.
substance,measurement,setting,value
sodium caseinate,Copper addition at which the solution precipitated,[1],1.5 mM
same,Iron level at which protein and/or iron precipitates,[2],5 to 10 mM
same,Zinc that could be added without precipitation of proteins,[3],not more than 5 mM
